# Paper PMC8050843
# Molecular target: Ndc80C-GFP (S. cerevisiae Ndc80 complex with GFP at the C terminus of Spc24) (S. cerevisiae) (UniProt P40460)
# UniProt P40460, sequence (P40460 whole entry, chain 1 of 4): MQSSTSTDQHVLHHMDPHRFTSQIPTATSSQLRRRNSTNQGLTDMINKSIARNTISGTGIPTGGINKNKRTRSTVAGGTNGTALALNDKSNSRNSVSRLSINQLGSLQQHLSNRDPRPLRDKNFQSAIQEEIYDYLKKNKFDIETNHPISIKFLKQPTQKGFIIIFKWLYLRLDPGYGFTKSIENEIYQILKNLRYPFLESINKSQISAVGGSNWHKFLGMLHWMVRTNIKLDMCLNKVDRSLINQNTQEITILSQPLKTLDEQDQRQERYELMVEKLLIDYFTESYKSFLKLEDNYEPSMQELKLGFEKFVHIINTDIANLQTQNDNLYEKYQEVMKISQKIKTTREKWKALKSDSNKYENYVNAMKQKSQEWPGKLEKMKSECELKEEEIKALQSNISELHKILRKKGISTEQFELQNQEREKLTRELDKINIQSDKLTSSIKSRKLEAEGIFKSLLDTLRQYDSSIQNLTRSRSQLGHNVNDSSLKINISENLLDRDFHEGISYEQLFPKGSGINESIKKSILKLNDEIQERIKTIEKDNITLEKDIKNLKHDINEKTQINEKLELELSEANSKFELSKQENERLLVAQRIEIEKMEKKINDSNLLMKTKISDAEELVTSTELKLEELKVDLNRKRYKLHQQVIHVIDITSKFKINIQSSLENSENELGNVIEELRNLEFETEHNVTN
# UniProt P40460, sequence (P33895 whole entry, chain 2 of 4, further chain): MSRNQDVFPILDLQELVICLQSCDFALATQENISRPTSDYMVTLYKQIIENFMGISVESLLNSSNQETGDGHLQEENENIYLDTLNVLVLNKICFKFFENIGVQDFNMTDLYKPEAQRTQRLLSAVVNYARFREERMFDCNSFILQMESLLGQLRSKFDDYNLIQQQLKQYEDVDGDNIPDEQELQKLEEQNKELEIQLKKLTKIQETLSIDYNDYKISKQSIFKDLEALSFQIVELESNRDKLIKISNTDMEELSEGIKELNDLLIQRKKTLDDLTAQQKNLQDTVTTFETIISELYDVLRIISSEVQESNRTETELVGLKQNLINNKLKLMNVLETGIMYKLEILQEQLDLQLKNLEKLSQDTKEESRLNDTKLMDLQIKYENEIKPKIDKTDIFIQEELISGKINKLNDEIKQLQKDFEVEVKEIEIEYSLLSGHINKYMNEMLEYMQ
# UniProt P40460, sequence (Q04477 whole entry, chain 3 of 4, further chain): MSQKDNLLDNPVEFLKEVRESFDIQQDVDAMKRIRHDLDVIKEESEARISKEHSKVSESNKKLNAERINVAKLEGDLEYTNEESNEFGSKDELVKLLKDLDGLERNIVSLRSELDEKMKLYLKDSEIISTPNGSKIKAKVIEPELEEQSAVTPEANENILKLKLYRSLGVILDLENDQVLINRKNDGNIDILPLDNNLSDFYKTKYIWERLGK
# UniProt P40460, sequence (P40014 whole entry, chain 4 of 4, further chain): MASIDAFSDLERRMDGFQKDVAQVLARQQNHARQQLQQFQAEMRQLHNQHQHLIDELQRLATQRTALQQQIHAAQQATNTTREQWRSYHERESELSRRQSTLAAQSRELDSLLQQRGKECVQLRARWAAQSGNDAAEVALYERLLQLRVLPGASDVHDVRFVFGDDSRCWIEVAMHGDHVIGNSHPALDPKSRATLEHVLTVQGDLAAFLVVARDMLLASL
substance,measurement,value
"Dam1C (S. cerevisiae Dam1 complex, without GFP) (from UniProt P53267 1-343; Q12248 1-94; P36131 1-295)","detachment of the Ndc80C nanobead from the MT plus end following transient end-on attachment (end-on drop-off) in the absence of Dam1C, against its presence",31%
